Test results reported in paper PMC6249252, “COMP and TSP-4 interact specifically with the novel GXKGHR motif only found in fibrillar collagens” (Scientific Reports, 2018).

Legend:
Experiment in all cases: ELISA; collagen model peptide or collagen XI coated; COMP or TSP-4 at indicated concentrations in TBS-T with 0.25% BSA, 1 h, room temperature; detected with anti-COMP or anti-TSP-4 antibody; four-parameter logistic fit; apparent KD
[1] = biological target: … foldon collagen model peptide (histidine to proline) (not stated | bacteriophage T4)
[2] = biological target: GVKGHR foldon collagen model peptide (minimal binding site) (not stated | bacteriophage T4)
[3] = biological target: … foldon collagen model peptide (valine to proline) (not stated | bacteriophage T4)

Sequence of cartilage oligomeric matrix protein (COMP), wild type, pentameric (P49747 21-757): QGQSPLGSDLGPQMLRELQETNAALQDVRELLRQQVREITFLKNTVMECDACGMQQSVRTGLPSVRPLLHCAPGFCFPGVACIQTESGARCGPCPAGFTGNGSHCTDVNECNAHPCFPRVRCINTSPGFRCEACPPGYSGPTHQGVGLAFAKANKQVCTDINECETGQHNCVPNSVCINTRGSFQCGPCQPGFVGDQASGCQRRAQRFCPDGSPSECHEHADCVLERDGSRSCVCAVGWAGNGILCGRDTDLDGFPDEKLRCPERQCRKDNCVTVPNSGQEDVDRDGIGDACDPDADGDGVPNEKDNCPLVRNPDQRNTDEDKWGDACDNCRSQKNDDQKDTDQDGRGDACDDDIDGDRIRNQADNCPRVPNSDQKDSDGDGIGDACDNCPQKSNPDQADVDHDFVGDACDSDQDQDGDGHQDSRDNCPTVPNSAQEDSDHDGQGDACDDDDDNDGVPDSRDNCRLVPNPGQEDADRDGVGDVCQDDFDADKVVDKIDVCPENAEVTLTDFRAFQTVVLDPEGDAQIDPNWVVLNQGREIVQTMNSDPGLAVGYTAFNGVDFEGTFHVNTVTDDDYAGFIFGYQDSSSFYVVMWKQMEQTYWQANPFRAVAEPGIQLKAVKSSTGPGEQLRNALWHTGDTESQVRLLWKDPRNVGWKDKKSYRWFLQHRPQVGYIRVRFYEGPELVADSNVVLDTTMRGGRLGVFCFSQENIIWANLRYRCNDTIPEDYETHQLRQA
Sequence of thrombospondin-4 (TSP-4) (P35443 27-961): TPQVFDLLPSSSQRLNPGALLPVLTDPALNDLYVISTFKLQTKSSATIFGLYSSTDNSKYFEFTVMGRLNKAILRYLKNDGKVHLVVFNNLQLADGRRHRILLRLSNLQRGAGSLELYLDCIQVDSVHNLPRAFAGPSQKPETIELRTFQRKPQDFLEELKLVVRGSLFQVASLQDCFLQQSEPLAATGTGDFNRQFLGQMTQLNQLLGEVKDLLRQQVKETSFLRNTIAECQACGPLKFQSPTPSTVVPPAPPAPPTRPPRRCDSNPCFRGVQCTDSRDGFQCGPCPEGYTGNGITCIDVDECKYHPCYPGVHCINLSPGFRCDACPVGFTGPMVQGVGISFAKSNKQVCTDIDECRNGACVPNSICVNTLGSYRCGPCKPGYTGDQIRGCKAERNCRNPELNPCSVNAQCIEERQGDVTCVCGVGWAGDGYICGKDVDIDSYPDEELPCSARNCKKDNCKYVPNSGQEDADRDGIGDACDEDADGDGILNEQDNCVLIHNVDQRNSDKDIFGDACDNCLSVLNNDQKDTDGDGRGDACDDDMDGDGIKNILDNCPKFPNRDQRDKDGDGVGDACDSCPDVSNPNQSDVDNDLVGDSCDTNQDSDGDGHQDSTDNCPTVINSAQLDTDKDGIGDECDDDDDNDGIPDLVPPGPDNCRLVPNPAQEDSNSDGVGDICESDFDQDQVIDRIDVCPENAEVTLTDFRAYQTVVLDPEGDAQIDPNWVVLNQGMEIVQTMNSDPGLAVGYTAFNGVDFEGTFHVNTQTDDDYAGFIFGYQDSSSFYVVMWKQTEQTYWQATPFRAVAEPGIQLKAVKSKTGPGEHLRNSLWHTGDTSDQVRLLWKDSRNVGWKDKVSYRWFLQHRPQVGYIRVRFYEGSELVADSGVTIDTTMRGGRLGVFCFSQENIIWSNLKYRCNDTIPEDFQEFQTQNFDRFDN

| Substance | Kd [1] | Kd [2] | Kd [3] |
| --- | --- | --- | --- |
| cartilage oligomeric matrix protein (COMP), wild type, pentameric (from UniProt P49747 21-757) (natural protein) | 496 nM | 1.61 nM | 2.26 nM |
| thrombospondin-4 (TSP-4) (from UniProt P35443 27-961) (natural protein) | – | 0.56 nM | – |
